T1: biotinylated cynomolgus monkey VWF cysteine knot (CK) domain construct (cynomolgus monkey, biotinylated in vitro (BirA) on the biotinylation tag; one N-glycan)
T1 construct: Expressed in HEK293 EBNA cells; disulfide-linked homodimer; also called cyno VWF CK; cyno VWF CK domain; not shown: in vitro biotinylation tag, HRV-3C site and 3 VWF residues before the CK domain
T1 chain: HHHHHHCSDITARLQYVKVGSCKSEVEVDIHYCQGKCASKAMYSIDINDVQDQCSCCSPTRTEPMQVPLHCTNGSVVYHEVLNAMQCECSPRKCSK


Experiments:
[1] = target: T1, biotinylated cynomolgus monkey VWF …; experiment: SPR, scFv captured via anti-SV5, CK domain injected, pH 7.4, apparent Kd;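 further: scFvs from crude yeast supernatants printed on an amine-coupled anti-SV5 lawn, Kd computed as koff over kon, likely overestimating affinity because the CK construct is dimeric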
[2] = target: T2, biotinylated human VWF cysteine knot (CK) domain construct (human, UniProt P04275 2724-2813, biotinylated in vitro (BirA) on the biotinylation tag; one N-glycan); experiment: as above
T2 construct: Expressed in HEK293 EBNA cells; disulfide-linked homodimer; also called human VWF CK; human VWF CK domain; not shown: in vitro biotinylation tag, HRV-3C site and 3 VWF residues before the CK domain

[3] = target: T2, biotinylated human VWF cysteine knot …; experiment: SPR, scFv captured via anti-SV5, CK domain injected, pH 5.5, apparent Kd;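 further: scFvs from crude yeast supernatants captured on chip-bound anti-SV5 antibody, Kd computed as koff divided by kon, dimeric CK construct likely makes affinity appear higher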
From the text: Briefly, a sensor chip was activated and coupled with an anti-SV5 mouse monoclonal antibody using amine coupling. The soluble scFvs in crude yeast supernatants were printed on the anti-SV5 lawn. […] From the measured association (kₒₙ) and dissociation (koff) rate constants, an apparent equilibrium dissociation constant (Kd=koff/kₒₙ) was estimated. Due to the dimeric state of the CK construct and consequent possibility for simultaneous binding of captured scFv to both monomers in the CK dimer, the SPR setup was expected to overestimate the binding affinity.

Binder	Kd [1]	Kd [2]	Kd [3]
1374_Lib8_scFv (scFv, VH-linker-VL; not shown: C-terminal 3xFLAG and SV5 tags) scFv: EVQLVESGGGLVQPGRSLRLSCAASGVDFSTYAMHWVRQAPGKGLEWVSAISSSGAYTDYADSVEGRFTISRDNAKNSLYLQMNSLRAEDTAVYYCATDRGPFSGYGTQGWFDPWGQGTLVTVSSSGGSTITSYNVYYTKLSSSGTDIQMTQSPSSLSASVGDRVTITCRASQTIRSYLAWYQQKPGKAPKLLIYGASDLQSGVPSRFSGSGSGTDFTLTISSLQPEDVATYYCQQYANFPITFGGGTKVEIK	61 pM	116 pM	43 pM
1405_Lib8_scFv (scFv, VH-linker-VL; not shown: C-terminal 3xFLAG and SV5 tags) scFv: EVQLVESGGGLVQPGRSLRLSCAASGVDFSTYAMHWVRQAPGKGLEWVSAISSSGAYTDYADSVEGRFTISRDNAKNSLYLQMNSLRAEDTAVYYCATDRGPFSGYGTQGWFDPWGQGTLVTVSSSGGSTITSYNVYYTKLSSSGTDIQMTQSPSSLSASVGDRVTITCRASRDITSYLAWYQQKPGKAPKLLIYHASTLEAGVPSRFSGSGSGTDFTLTISSLQPEDVATYYCQQYGDFPPTFGGGTKVEIK	39 pM	305 pM	389 pM
7046_Lib8_scFv (scFv, VH-linker-VL; not shown: C-terminal 3xFLAG and SV5 tags) scFv: EVQLVESGGGLVQPGRSLRLSCAASGFNFHNYDMHWVRQAPGKGLEWVSAISGSGYTADYADSVEGRFTISRDNAKNSLYLQMNSLRAEDTAVYYCAKSHSSGWSSAFDIWGQGTMVTVSSSGGSTITSYNVYYTKLSSSGTDIQMTQSPSSLSASVGDRVTITCRASQTIGYWLAWYQQKPGKAPKLLIYDATNLATGVPSRFSGSGSGTDFTLTISSLQPEDVATYYCQHYNPYSQVTFGGGTKVEIK	2 pM	88 pM	1160 pM
9621_Lib8_scFv (scFv, VH-linker-VL; not shown: C-terminal 3xFLAG and SV5 tags) scFv: EVQLVESGGGLVQPGRSLRLSCAASGFSFSMYAMHWVRQAPGKGLEWVSAISPSGDATDYADSVEGRFTISRDNAKNSLYLQMNSLRAEDTAVYYCARGMQDYGHYYYYYMDVWGKGTTVTVSSSGGSTITSYNVYYTKLSSSGTDIQMTQSPSSLSASVGDRVTITCRASQDISTSLAWYQQKPGKAPKLLIYGASSLETGVPSRFSGSGSGTDFTLTISSLQPEDVATYYCQQGYIAPRTFGGGTKVEIK	137 pM	217 pM	2280 pM
8226_Lib8_scFv (scFv, VH-linker-VL; not shown: C-terminal 3xFLAG and SV5 tags) scFv: EVQLVESGGGLVQPGRSLRLSCAASGFNFHNYDMHWVRQAPGKGLEWVSAISGGAVSTDYADSVEGRFTISRDNAKNSLYLQMNSLRAEDTAVYYCARSSWYGGQIDFWGQGTLVTVSSSGGSTITSYNVYYTKLSSSGTDIQMTQSPSSLSASVGDRVTITCRASQDISGWLAWYQQKPGKAPKLLIYAASSLQDGVPSRFSGSGSGTDFTLTISSLQPEDVATYYCQQSYRIPSTFGGGTKVEIK	550 pM	3170 pM	1380 pM
1081_Lib8_scFv (scFv, VH-linker-VL; not shown: C-terminal 3xFLAG and SV5 tags) scFv: EVQLVESGGGLVQPGRSLRLSCAASGFNFHNYDMHWVRQAPGKGLEWVSAISGGAVSTDYADSVEGRFTISRDNAKNSLYLQMNSLRAEDTAVYYCARSSWYGGQIDFWGQGTLVTVSSSGGSTITSYNVYYTKLSSSGTDIQMTQSPSSLSASVGDRVTITCRASESVSSWLAWYQQKPGKAPKLLIYGASTLEGGVPSRFSGSGSGTDFTLTISSLQPEDVATYYCQQAYRTPVTFGGGTKVEIK	167 pM	391 pM	274 pM
Lib1_P1_A2_scFv (scFv, VH-linker-VL; not shown: C-terminal 3xFLAG and SV5 tags) scFv: QVQLVQSGAEVKKPGASVKVSCKVSEGTLSRHYINWVRQAPGKGLEWMGGINAKSGATIYAQKFQGRVTMTEDTSTDTAYMELSSLKSEDTAVYYCAKDTGDDILTDYSDAFDIWGQGTMVTVSSSGGSTITSYNVYYTKLSSSGTDIQMTQSPSSVSASVGDRVTITCRASQNIGTSLAWYQQKPGKAPKLLIYGASNLESGVPSRFSGSGSGTDFTLTISSLQPEDFANYYCLQYNDWPPLYSFGGGTKVEIK		1780 pM	76 pM
5802_Lib4_scFv (scFv, VH-linker-VL; not shown: C-terminal 3xFLAG and SV5 tags) scFv: QVQLQESGPGLVKPSQTLSLTCTVSGYSISSGDYHWSWIRQPPGKGLEWIGYINPSGSADYNPSLKSRVTMSVDTSKNQFSLKVNSVTAADTAVYYCARDGVAATYYYYYGMDVWGQGTTVTVSSSGGSTITSYNVYYTKLSSSGTEIVMTQSPATLSLSPGERATLSCRASHSIGSNLAWYQQKPGQAPRLLIYDATTRATGIPARFSGSGSGTDFTLTISSLEPEDFAVYYCQQAYSFPLTFGGGTKVEIK	16 pM	101 pM	1090 pM
16_Lib8_scFv (scFv, VH-linker-VL; not shown: C-terminal 3xFLAG and SV5 tags) scFv: EVQLVESGGGLVQPGRSLRLSCAASGFRFDEYDMHWVRQAPGKGLEWVSAISSESASIDYADSVEGRFTISRDNAKNSLYLQMNSLRAEDTAVYYCARDGAYGDYFDYWGQGTMVTVSSSGGSTITSYNVYYTKLSSSGTDIQMTQSPSSLSASVGDRVTITCRASQDIKSWLAWYQQKPGKAPKLLIYGASTLQSGVPSRFSGSGSGTDFTLTISSLQPEDVATYYCQQSYSAPYTFGGGTKVEIK		2110 pM	1050 pM
9301_Lib8_scFv (scFv, VH-linker-VL; not shown: C-terminal 3xFLAG and SV5 tags) scFv: EVQLVESGGGLVQPGRSLRLSCAASGFNFHNYDMHWVRQAPGKGLEWVSAISGSGYTADYADSVEGRFTISRDNAKNSLYLQMNSLRAEDTAVYYCAKSHSSGWSSAFDIWGQGTMVTVSSSGGSTITSYNVYYTKLSSSGTDIQMTQSPSSLSASVGDRVTITCRASQTIGYWLAWYQQKPGKAPKLLIYDASVPESGVPSRFSGSGSGTDFTLTISSLQPEDVATYYCQQTLSSPWTFGGGTKVEIK	684 pM	167 pM	39 pM

The next lines start with the values.

Kd [1]	Kd [2]	Kd [3]	Binder
128 pM	493 pM	123 pM	Lib4_P2_A5_scFv (scFv, VH-linker-VL; not shown: C-terminal 3xFLAG and SV5 tags) scFv: QVQLQESGPGLVKPSQTLSLTCTVSGSSISSSSDYWSWIRQPPGKGLEWIGYIDISGDADYNPSLKSRVTMSVDTSKNQFSLKVNSVTAADTAVYYCARHLSSGWYGTYYFDYWGQGTLVTVSSSGGSTITSYNVYYTKLSSSGTEIVMTQSPATLSLSPGERATLSCRASQNIHSNLAWYQQKPGQAPRLLIYDASSRATGIPARFSGSGSGTDFTLTISSLEPEDFAVYYCQQGYTKPLTFGGGTKVEIK
697 pM	691 pM	1430 pM	Lib1_P1_C6_scFv (scFv, VH-linker-VL; not shown: C-terminal 3xFLAG and SV5 tags) scFv: QVQLVQSGAEVKKPGASVKVSCKVSGYTFASHYIHWVRQAPGKGLEWMGGMDPATGQTIYAQKFQGRVTMTEDTSTDTAYMELSSLKSEDTAVYYCAKGDRSSWYEVLSFQHWGQGTLVTVSSSGGSTITSYNVYYTKLSSSGTDIQMTQSPSSVSASVGDRVTITCRASQGISTDLAWYQQKPGKAPKLLIYDASILQRGVPSRFSGSGSGTDFTLTISSLQPEDFANYYCQQVRTYPFTFGGGTKVEIK
59 pM	92 pM	45 pM	Lib1_P1_A6_scFv (scFv, VH-linker-VL; not shown: C-terminal 3xFLAG and SV5 tags) scFv: QVQLVQSGAEVKKPGASVKVSCKVSGSTFSNYAIHWVRQAPGKGLEWMGGIVPLSGTAIYAQKFQGRVTMTEDTSTDTAYMELSSLKSEDTAVYYCARDQGESSGWYAIYYGMDVWGQGTTVTVSSSGGSTITSYNVYYTKLSSSGTDIQMTQSPSSVSASVGDRVTITCRASQGIGTWLAWYQQKPGKAPKLLIYGSSSRASGVPSRFSGSGSGTDFTLTISSLQPEDFANYYCQQSYGKPTFGGGTKVEIK
1010 pM	3150 pM	487 pM	Lib8_P4_C10_scFv (scFv, VH-linker-VL; not shown: C-terminal 3xFLAG and SV5 tags) scFv: EVQLVESGGGLVQPGRSLRLSCAASGFNFHNYDMHWVRQAPGKGLEWVSAISGSSDTMDYADSVEGRFTISRDNAKNSLYLQMNSLRAEDTAVYYCVRASWYGTFFDYWGQGTLVTVSSSGGSTITSYNVYYTKLSSSGTDIQMTQSPSSLSASVGDRVTITCRASQDISGWLAWYQQKPGKAPKLLIYAASSLQDGVPSRFSGSGSGTDFTLTISSLQPEDVATYYCQQSYRIPSTFGGGTKVEIK
134 pM	307 pM	75 pM	Lib4_P2_H3_scFv (scFv, VH-linker-VL; not shown: C-terminal 3xFLAG and SV5 tags) scFv: QVQLQESGPGLVKPSQTLSLTCTVSGSTFGDYAWSWIRQPPGKGLEWIGYINHIGNADYNPSLKSRVTMSVDTSKNQFSLKVNSVTAADTAVYYCARDGVESPEVPNYYYYGMDVWGQGTTVTVSSSGGSTITSYNVYYTKLSSSGTEIVMTQSPATLSLSPGERATLSCRASHSIGSNLAWYQQKPGQAPRLLIYDATNRAPGIPARFSGSGSGTDFTLTISSLEPEDFAVYYCQQSYTNPTFGGGTKVEIK
187 pM	589 pM	338 pM	Lib1_P1_D1_scFv (scFv, VH-linker-VL; not shown: C-terminal 3xFLAG and SV5 tags) scFv: QVQLVQSGAEVKKPGASVKVSCKVSGDTFTDRYIHWVRQAPGKGLEWMGGINTIFGTAIYAQKFQGRVTMTEDTSTDTAYMELSSLKSEDTAVYYCAREGATVSTNFDYWGQGTLVTVSSSGGSTITSYNVYYTKLSSSGTDIQMTQSPSSVSASVGDRVTITCRASQDIRKSLAWYQQKPGKAPKLLIYDISNRPSGVPSRFSGSGSGTDFTLTISSLQPEDFANYYCQQGYSAPYGFGGGTKVEIK
	3110 pM	33 pM	Lib4_P2_A11_scFv (scFv, VH-linker-VL; also called Lib4_P2_All; not shown: C-terminal 3xFLAG and SV5 tags) scFv: QVQLQESGPGLVKPSQTLSLTCTVSGVTFSSYGWSWIRQPPGKGLEWIGYVDTSGSTDYNPSLKSRVTMSVDTSKNQFSLKVNSVTAADTAVYYCARTTYYYDSSGFARGWFDPWGQGTLVTVSSSGGSTITSYNVYYTKLSSSGTEIVMTQSPATLSLSPGERATLSCRASRSISTNLAWYQRKPGQAPRLLIYDTSNRAPGIPARFSGSGSGTDFTLTISSLEPEDFAVYYCLQYDVSPYTFGGGTKVEIK

— patent US20250154283A1 (published 2025)
